Laboratory results reported in patent publication US12012599B2, “Compositions and methods for modulating left-right differentiation factor (LEFTY) and bone morphogenic factor (BMP)” (CZ Biohub SF LLC, priority 2018, dated 2024).

B1: CRIPTO-1: soluble EGF-CFC Nodal co-receptor (protein, UniProt P13385 31-150, looked up)
Protein Cripto: LGHQEFARPSRGYLAFRDDSIWPQEEPAIRPRSSQRVPPMGIQHSKELNRTCCLNGGTCMLGSFCACPPSFYGRNCEHDVRKENCGSVPHDTWLPKKCSLCKCWHGQLRCFPQAFLPGCD
B2: NODAL: TGF-β family ligand that induces phosphorylation of SMAD2/3 (protein, UniProt Q96S42 238-347, looked up)
Nodal homolog: HHLPDRSQLCRKVKFQVDFNLIGWGSWIIYPKQYNAYRCEGECPNPVGEEFHPTNHAYIQSLLKRYQPHRVPSTCCAPVKTKPLSMLYVDNGRVLLDHHKDMIVEECGCL

Tested on: mammary epithelial cells
Test: 3D organotypic mammary organoid formation
Type: cell-based, mouse
Details: for organoid formation (frequency, number of colonies): Wnt-dependent organoid culture
Description: FIGS. 8A-8D. Autocrine and paracrine effects of NODAL and LEFTY1 in mammary epithelial cell populations. […] The sorted cells were grown in the 3D organotypic assays to test their organoid formation potential in the presence of NODAL. […] Each dot represents an organoid (n=3). […] Data are represented as median±S.D. Statistical analysis, One-way ANOVA with Dunnet's adjustment, **p<0.01.
FIGS. 9A-9F. Opposing effects of LEFTY1 and BMP7 in mammary organoid formation. […] Data are represented as median±S.D. Statistical analysis, one-way ANOVA with Dunnet's adjustment, *p<0.05; **p<0.01; ***p<0.001.
Since LEFTY1 and BMP7 were able to affect the branching of mammary glands, we hypothesized that the LEFTY1/BMP7 signaling axis may affect the proliferation of mammary epithelial cells. We exposed freshly dissociated mammary epithelial cells to NODAL, LEFTY1, BMP7 and CRIPTO-1 in a modified Wnt-dependent in vitro organoid culture system that was optimized for progenitor cell propagation (Zeng & Nusse, Cell Stem Cell 6, 568-577 (2010) and Jamieson et al., Development 144, 1065-1071 (2017)). In Xenopus, Wnt signaling controls the expression of Nodal and Cripto-1 during gastrulation. Consistent with the evolutionary conservation of the interaction between the Nodal and Wnt pathways (Branford et al., Curr Biol 12, 2136-2141 (2002)), NODAL had no effect on organoid formation in our Wnt-driven culture system (FIG. 8A).
In organoid cultures, the basal cells give rise to mixed phenotype colonies of luminal and basal cells. To prevent the formation of LEFTY1-expressing cells during organoid formation, genetic knockdown of LEFTY1 was done. To knock-down mouse LEFTY1, pSICO-R lentiviral vector was used (Ventura, PNAS, 2004). Different shRNAs were designed and cloned into pSICO-R. The target sequences of the shRNAs cloned were GGACAAGGCTGATGTGGAA (SEQ ID NO: 14) and GCAGGTTCCTGGTGTCAGA (SEQ ID NO: 15). The efficiency of knock-down was tested by transfecting HEK293T cells with pSICO-R-shLEFTY1 constructs with pEGFP-C3-LEFTY1 at 1:4 and 1:20 ratio. Decrease on GFP signal was used to calculate the percentage of inhibition of the shLEFTY sequences. […] (p<0.001 and p<0.01, respectively) (FIGS. 8C-8D and FIGS. 9E-9F).

Molecule | organoid formation (frequency, number of colonies) | effect on LEFTY1's increase of organoid formation (in combination with LEFTY1)
B1 | did not have a significant effect | enhanced
B2 | no effect | 
